In the nanobody polyreactivity screen of Harvey et al. (2022):

Assay: yeast display, Sf9 membrane polyspecificity reagent, FACS + sequencing; frameworks hold sequencing errors
How it was run: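 Genes from sorted yeast were amplified by colony PCR, read by MiSeq 2 × 250 sequencing and filtered on CDR length. These cells carried a synthetic nanobody library in Saccharomyces cerevisiae BJ5465 and were sorted by FACS into low and high (top ~1%) gates on anti-HA and streptavidin fluorescence. Polyreactivity is labelled according to the gate of origin.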

| Sequence | polyreactivity (PSR sort gate) |
| --- | --- |
| QVQLVESGGGLVHAGGRLRLSCAASGRIFYTYTMGWYSQAPGKERELVATITDGTRTNYADSVKGRFTISRDNAKITVYLQMTSLQPEDTAVYYCNAAGRWHDLYRINYDYWGQGTKVTVSS | low polyreactivity |
| QVQLVESGGGLVHAGGRLRLSCAASGRISGYAMAWYRQAPRTERELVAAISTRGGTTYYADSVKGRFTISRDNAKNTVYLQMNSLKPEDTAVYFCNAASSRWPEYDFWGQGTQVTVSS | high polyreactivity |
| QVQLVESGGGLVHAGGSHRLSCAASGFSFKSYAMGWYRQAPGKERELVAAISRRCGSTNYADSVKGRFTISRDNAKNTVYLQMNSLKPEDTAVYYCNADPYNSPYQVSGPYKEDYDYWGQGTQVTVSS | high polyreactivity |
| QVQLVESGGGLVHAGGSLGLSCAASGSIFYEYVMGWYRQAPGKERELVATIDLNGGSTTYADSVKGRFTISRDNAKNTDYLQMNSLKPEDTAVYYCAAQTGFVSHFFWHYDYWGQGSQVTVSS | low polyreactivity |
| QVQLVESGGGLVHAGGSLRLSCAASGFIFNFYAMGWYRQAPGKERELVAAISRTGGSTYYADSVKGRFTISRDNAKNTVYLQMNSLKPEDTAVYYCNAGCGFRSYGYDPWGQGTQVTVSS | high polyreactivity |
| QVQLVESGGGLVHAGGSLRLSCAASGFILTGYTMGWYRQAPGKEMELVAAISYRGGSTYYADSVKGRFTISRDNAKNTVYLQMNSLKPEDTAVYYCNAVWSNFRLGYDYWGQGTQVTVSS | high polyreactivity |
| QVQLVESGGGLVHAGGSLRLSCAASGFTFEYNAMGWYRQAPGKERELVAVITYRGGSTYYADSVKGRFTISRDNAKHTVYLQMNSLKPEDTAVYYCAADSVTYGGDYWGQGTQVTVSS | high polyreactivity |
| QVQLVESGGGLVHAGGSLRLSCAASGFTFRGYAMGWYRPSPGKEREFVAAISRSGGSTNYADSVKGRFTISRDNAKNTVYLQMNSLKPEDTAVYYCAAGWNPYDYWGQGTQVTVSS | high polyreactivity |
| QVQLVESGGGLVHAGGSLRLSCAASGFTFRYGMGWYRQAPRKERELVAAISNTGGSTYYADSVKGRFTISRDNAKNTVYLKMNSLKPEDTSVYYCAAAGGLWWVFYALDYWGQGTQVSVSS | low polyreactivity |
| QVQLVESGGGLVHAGGSLRLSCAASGFTFYYYAMGWYRPAPGKERELVAAISSRGGNSYYADSVKGRFTISRDNAKNTVYLQMNSLKPEDTAVYYCASVPLKYDYWGQGTQVTVSS | high polyreactivity |
| QVQLVESGGGLVHAGGSLRLSCAASGFTIRSYVMGWYRQAPGKERELVAAIRRSGGSTYYADSVKGRFTISRDNAKNTVYLQMNCLKPEDTAVYYCNADIRAYTVLTGGYIYDYWGQGTQVTVSS | high polyreactivity |
| QVQLVESGGGLVHAGGSLRLSCAASGGTFSLNAMGWYRKAPGTERELVAAISKRSSTTYYADSVKGRFTISRDNAKNTVYLQMNSLKPEDTSVYYCAARVLRSRKPGRGYDYWGQGTQVTVSS | high polyreactivity |
| QVQLVESGGGLVHAGGSLRLSCAASGILFGYYAIGWYRQAPGKERELVAAITSGSSTDYADSVKGRFTISRDNAKNTFYLQMNSLKPEDTAVYYCNAVTSASTYTFPFDYWGQGTQVTVSS | low polyreactivity |
| QVQLVESGGGLVHAGGSLRLSCAASGITFEGNAMGWNRQAPGTERELVAAIRSSGTSTYYADSVKGRFTFSRDNEKKTVYLQMNSLKPEDTAVYYCNRARSSSRYDYWGEGTQVTVSS | low polyreactivity |
| QVQLVESGGGLVHAGGSLRLSCAASGITFVYYAMGWYRQAPGKERELVAAIDDTGTTYYADSVKGRFTISRDNAKNTVYLQMNSLKPEDTAVYYCAADDWGWFFGGGDYWGQGTQVTVSS | high polyreactivity |
| QVQLVESGGGLVHAGGSLRLSCAASGKIFGLYAMGWYRKAPGKERELVAAISYRTDSTYADSVKGRFTISRDNAKNTVYLQMNSLKPEDTAVYYCAADLRVSVRYYYWGQGTQVTVSS | low polyreactivity |
| QVQLVESGGGLVHAGGSLRLSCAASGLTFGAYAMGWYRQAPGEERELVATITNSGRTYYADSVKGRFTISRDNAKNTVYLQMNSLKPEDTAVYYCAAQPDGQAMDHWGQGTQVTVSS | low polyreactivity |
| QVQLVESGGGLVHAGGSLRLSCAASGLTFVDNAMGWYRQAPGKERELVAAITKRGGRTYYADSVKGRFTISRDNAKNTVYSQMNSLKPEDTAVYYCAREAGNDSSRRLDYWGQGTQVTVSS | low polyreactivity |
| QVQLVESGGGLVHAGGSLRLSCAASGRLFYPYAMGWYRQAPGKERELVAAITYITGSTYADSVKGRFTISRDNAKNTVYLQMNSLKPEDTAVYYCAADYESGDYWGQGTQVTVSS | low polyreactivity |
| QVQLVESGGGLVHAGGSLRLSCAASGRTFATNTIGWYRQAPGKERELVAAITFSGGSTYYADSVKGRFTISRDTAKIPRYLQMNCLKPEDNEVYYCNVRSPYYSYRYRYGYWGQGSQVTVSS | high polyreactivity |
| QVQLVESGGGLVHAGGSLRLSCAASGRTFATYAMGWYRQAPGKERELVAAITSGGSTYYADSVKGRFTISRDNAKNTVYLQMNSLKPEDTAVYYCAADLSTYRRGFDYWGQGTHVTVSS | high polyreactivity |
| QVQLVESGGGLVHAGGSLRLSCAASGRTFGIYTMGWYRQAPGKERELVASTYYADSVKGRFTISRDNAKNTVYLQMNSLKPEDTAVYYCNVERLKKSQVWYGYPNDYWGQGTQVTVSS | low polyreactivity |

| Sequence | polyreactivity (PSR sort gate) |
| --- | --- |
| QVQLVESGGGLVHAGGSLRLSCAASGRTFWAYAMGWYRQAPGKERELVAAISASRGSTYYADSVKGRFTISRDTAKNTVYLEMNSLTAEDTAVYYCRLVSNGRLYDYWGQGTQATVSS | low polyreactivity |
| QVQLVESGGGLVHAGGSLRLSCAASGRTFYPNVMGWYRQAPGKERELVAAIRARGGSTYYADSVKGRFTISRDNAKNTVYLQMNSLKPEDTAVYYCARDTGDYLQFDYWGQGTQVTVSS | high polyreactivity |
| QVQLVESGGGLVHAGGSLRLSCAASGRTIGYYAMGWYRQAPGKERELVAAISWSGGSTYYADSVKGRFTISRDIAKNTVYLQMNSLKPEATAVYYCAAKYSFRAAHYYYWGQGTQVTVSS | high polyreactivity |
| QVQLVESGGGLVHAGGSLRLSCAASGRTLWGYVMGWYREAPGKERELVAVITASGGSTYYADSVNGRFTISRDNAKNTVYLQMYSLKPEDTAVYYCNADSRAERYFWSFVENDYWVQGTQVTVSS | low polyreactivity |
| QVQLVESGGGLVHAGGSLRLSCAASGRTLWYYTMGWYRQAPGKEMELVADITRGTSTNYADSVKGRFTISRDNAKNTVYLQMNILKPEDTAVYYCNRAHGRSRYSRDYDSWGQGTQVTVSS | low polyreactivity |
| QVQLVESGGGLVHAGGSLRLSCAASGSIFAYYAMGWYRQAPGKERELVARITYSTDGTYYADSVKGRFTISRDNAKNTVYLQMNSLKPEDTAVYFCAVDTWWGFKRYKFDYWGQGTQVTVSS | low polyreactivity |
| QVQLVESGGGLVHAGGSLRLSCAASGSIFGIYTMGWYRQAPGKERELVARINLSGGITYYADSVKGRFKISRDNAKNTVYLQMNSLKPEDTAVYYCNARTVNFPYDYWGQGTQVTVSS | low polyreactivity |
| QVQLVESGGGLVHAGGSLRLSCAASGSIFGVNARGWYRPAPGKERELVAAISSTGSRTYYADSVQGRFTISRDNAKNTVYLQRNSLKPEETAVYYCAAYLTRYGAYYWGQGTQVTVSS | high polyreactivity |
| QVQLVESGGGLVHAGGSLRLSCAASGSIFGWYVMGWYRQAPGKERELVAAISSVGSTYYADSVKGRFTISRDNAKNTVCLQMNSLKPEDTAVYYCAKLRYPYLFWDDSEYWGQGTQVTVSS | low polyreactivity |
| QVQLVESGGGLVHAGGSLRLSCAASGSIFHFNAMGWYRQAPGKERELVARISIGGGSTYYADSVKGRFTISRDNAKNTVYFQMNSLKPEDTAVYSCAVDGSPRNKYDYWGQGTQVTVSS | high polyreactivity |
| QVQLVESGGGLVHAGGSLRLSCAASGSTFFPYDMGWYRPEPGTERYFVAGISSDGGTSYADSVKGRFTISRDNAKNTVYLQMNSMKPEDTAVYDCAALQADGDRYPEFDLMDYWGQGSQVTVSS | low polyreactivity |
| QVQLVESGGGLVHAGGSLRLSCAASGSTFSRYAMGWYRQAPWKERELVAAISWSGASTYYADSVKWRFTISRDNAKNTVYLQMNSLKPEDTSVYYCAKVARQNWFRYNYDYWGQGTQVTVSS | high polyreactivity |
| QVQLVESGGGLVHAGGSLRLSCAASGSTFVRNAMGWYRQAPGKERELVAAITSRGGSTYYADSVKGRFTISRDNAKNTVYLQMNSLKPEDTAVYYCAARFGVKRGQYDYWGQGTQVTVSS | high polyreactivity |
| QVQLVESGGGLVHAGGSLRLSCAASGTIFYRNAMGWYRQAPGKERELVAAITSRGGRTYYADSVKGRFTISRDNAKNTVYLQMNSLKPEDTAVYDCNKRYVYSTSDYDYWGQGTQVTVSS | high polyreactivity |
| QVQLVESGGGLVHAGGSLRLSCAASGYIFTRNMGWYRQAPGKERELVAAITWSGGSTYYADSVKGRFTISRDNAKNTVYLQINSLKPEDTAVYYCAADYGWSVGRRYYYWGQGTQVTVSS | high polyreactivity |
| QVQLVESGGGLVHAGGSLRLSCAASGYIIGYYTMGWYRQAPGKERELVATIRSGGSTYYADSVKGRFTISRDNANNSVYLQINSLKPEDTAVYYCAKRVRRISEYGYWGQGTHVTVSS | high polyreactivity |
| QVQLVESGGGLVHAGGSLRLSCAASGYTFGNNAMGWYIQAPGKERELVASIRTNGGTTYYADSVKGRFTISRDNAKNTVYLQMNSLKPEDTAVYYCNAYRGYEYDYWGQGTQVTVSS | low polyreactivity |
| QVQLVESGGGLVHAGGSLRLSCAASVSTFLFYAMGWYRQAPGKEREFVAAITWSGGSTYYADSVKGRFTISRDNAKNTVYLQMNSLKPEDTAVYYCNGYYVPTTGREFYFAFYYWGQGTQVTVSS | low polyreactivity |
| QVQLVESGGGLVHAGGSLRLSCAAYGRTFKYNAMGWNRQAPGKERELVAAISSRGGSTYYADSVKGRFTISRDNAKNTVYLQMNSLKPEDTAVYYCAIATSSSEYGYDYWGQGTQVTVSS | high polyreactivity |
| QVQLVESGGGLVHAGGSLRLSCADSGFTFGAYAMGWYRQAPGKERELVATITNSGRTYYADSVKGRFTISRDNAKNTVYLQMNSLNPEDTAVYYCAAQPDGQAMEHWGQGTQVTVSS | low polyreactivity |
| QVQLVESGGGLVHAGGSLRLSCAPSAFTFAYYAMGWYRQAPGKEREFVAAITKGGGSTNYADSVKGRFTISRDNAKNTVYLQMYSLKPEDTAVYYSNADYFVWYIGRVFSRYGYWGQGTQVTVSS | low polyreactivity |
